{
  "source": "patent US20110142842A1",
  "about": "(MEDINNOVA, published 2011)",
  "data": [
    {"target": "HLA-A*0201 (human, UniProt A*02:01)", "test": "REVEAL MHC binding assay (ProImmune)", "values": [
      {"binder": "ILLWEIFSL", "note": "[Peptide ID 3 ILLWEIFSL (FLT3)]", "% Pass/fail control": "199 % of pass/fail control"},
      {"binder": "SLFLGILSV (also called peptide #19; pep 19)", "note": "[Peptide ID 19 SLFLGILSV (CD20)]", "% Pass/fail control": "160 % of pass/fail control"},
      {"binder": "ALPAALAVI", "note": "[Peptide ID 127 ALPAALAVI (CD7)]", "% Pass/fail control": "264 % of pass/fail control"},
      {"binder": "HLYGSNASL", "note": "[Peptide ID 38 HLYGSNASL (CD11a)]", "% Pass/fail control": "135 % of pass/fail control"},
      {"binder": "SLSEEVTYV (Modified peptide)", "note": "[Peptide ID 145 SLSEEVTYV (CLL-1, modified peptide)]", "% Pass/fail control": "191 % of pass/fail control"},
      {"binder": "FLPDAFVTM", "note": "[Peptide ID 16 FLPDAFVTM (TdT)]", "% Pass/fail control": "164 % of pass/fail control"},
      {"binder": "ILFAFVSSV", "note": "[Peptide ID 25 ILFAFVSSV (FLT3)]", "% Pass/fail control": "221 % of pass/fail control"},
      {"binder": "FLPDAFVTV (Modified peptide)", "note": "[Peptide ID 133 FLPDAFVTV (TdT, modified peptide)]", "% Pass/fail control": "204 % of pass/fail control"},
      {"binder": "SLYGPGSYL", "note": "[Peptide ID 15 SLYGPGSYL (HA-1)]", "% Pass/fail control": "198 % of pass/fail control"},
      {"binder": "LLSGFFFFA", "note": "[Peptide ID 29 LLSGFFFFA (CD11a)]", "% Pass/fail control": "210 % of pass/fail control"},
      {"binder": "LLFIVVLTL", "note": "[Peptide ID 119 LLFIVVLTL (FLT3)]", "% Pass/fail control": "114 % of pass/fail control"},
      {"binder": "VLWHWLLRT", "note": "[Peptide ID 105 VLWHWLLRT (CD19)]", "% Pass/fail control": "337 % of pass/fail control"},
      {"binder": "LLLQVSSRV", "note": "[Peptide ID 36 LLLQVSSRV (CD64)]", "% Pass/fail control": "180 % of pass/fail control"},
      {"binder": "FLQPLFLVV (Modified peptide)", "note": "[Peptide ID 141 FLQPLFLVV (HA-1, modified peptide)]", "% Pass/fail control": "270 % of pass/fail control"},
      {"binder": "PLWGGIMYI", "note": "[Peptide ID 10 PLWGGIMYI (CD20)]", "% Pass/fail control": "155 % of pass/fail control"},
      {"binder": "ILLLVIWKA", "note": "[Peptide ID 130 ILLLVIWKA (CD18)]", "% Pass/fail control": "56.7 % of pass/fail control"},
      {"binder": "YLRPGQAAV (Modified peptide)", "note": "[Peptide ID 144 YLRPGQAAV (CD18, modified peptide)]", "% Pass/fail control": "227 % of pass/fail control"},
      {"binder": "LLRTGGWKV", "note": "[Peptide ID 39 LLRTGGWKV (CD19)]", "% Pass/fail control": "124 % of pass/fail control"},
      {"binder": "KLGGDLLRA", "note": "[Peptide ID 129 KLGGDLLRA (CD18)]", "% Pass/fail control": "229 % of pass/fail control"},
      {"binder": "RLLFFLLFL", "note": "[Peptide ID 112 RLLFFLLFL (CD19)]", "% Pass/fail control": "42.3 % of pass/fail control"},
      {"binder": "TVQEGLCVL", "note": "[Peptide ID 123 TVQEGLCVL (CD33)]", "% Pass/fail control": "75.2 % of pass/fail control"},
      {"binder": "LLFLTPMEV", "note": "[Peptide ID 108 LLFLTPMEV (CD19)]", "% Pass/fail control": "283 % of pass/fail control"},
      {"binder": "LLLREHNRL", "note": "[Peptide ID 113 LLLREHNRL (MPO)]", "% Pass/fail control": "195 % of pass/fail control"},
      {"binder": "CMAGARVQV", "note": "[Peptide ID 117 CMAGARVQV (CD50)]", "% Pass/fail control": "158 % of pass/fail control"},
      {"binder": "LLLPLLLAL", "note": "[Peptide ID 28 LLLPLLLAL (CD7)]", "% Pass/fail control": "253 % of pass/fail control"},
      {"binder": "YLKDGWHMV", "note": "[Peptide ID 2 YLKDGWHMV (CD5)]", "% Pass/fail control": "182 % of pass/fail control"},
      {"binder": "YLLRVIETL", "note": "[Peptide ID 14 YLLRVIETL (HA-1)]", "% Pass/fail control": "179 % of pass/fail control"},
      {"binder": "SMLDDLRNV", "note": "[Peptide ID 24 SMLDDLRNV (CD18)]", "% Pass/fail control": "251 % of pass/fail control"},
      {"binder": "LLDPKLCYL", "note": "[Peptide ID 13 LLDPKLCYL (TCR_TV)]", "% Pass/fail control": "204 % of pass/fail control"},
      {"binder": "SLFAAISGM", "note": "[Peptide ID 124 SLFAAISGM (CD20)]", "% Pass/fail control": "203 % of pass/fail control"},
      {"binder": "SLHSETWEI", "note": "[Peptide ID 32 SLHSETWEI (CD11a)]", "% Pass/fail control": "179 % of pass/fail control"},
      {"binder": "TLQPPWVSV", "note": "[Peptide ID 26 TLQPPWVSV (CD64)]", "% Pass/fail control": "197 % of pass/fail control"},
      {"binder": "LLAEVTLAV (Modified peptide)", "note": "[Peptide ID 147 LLAEVTLAV (CD53, modified peptide)]", "% Pass/fail control": "254 % of pass/fail control"},
      {"binder": "KLFTSVFGV", "note": "[Peptide ID 31 KLFTSVFGV (TdT)]", "% Pass/fail control": "200 % of pass/fail control"},
      {"binder": "FLVNTVLWV", "note": "[Peptide ID 12 FLVNTVLWV (CD64)]", "% Pass/fail control": "133 % of pass/fail control"},
      {"binder": "WMGGVSEPL", "note": "[Peptide ID 116 WMGGVSEPL (MPO)]", "% Pass/fail control": "199 % of pass/fail control"},
      {"binder": "LLIPAGIYV (Modified peptide)", "note": "[Peptide ID 136 LLIPAGIYV (CD20, modified peptide)]", "% Pass/fail control": "275 % of pass/fail control"},
      {"binder": "YLHVALDLL", "note": "[Peptide ID 107 YLHVALDLL (MPO)]", "% Pass/fail control": "278 % of pass/fail control"},
      {"binder": "LLMVFVALL", "note": "[Peptide ID 121 LLMVFVALL (CD2)]", "% Pass/fail control": "114 % of pass/fail control"},
      {"binder": "YLMDLSYSV (Modified peptide)", "note": "[Peptide ID 134 YLMDLSYSV (CD18, modified peptide)]", "% Pass/fail control": "242 % of pass/fail control"},
      {"binder": "RLYENRASL", "note": "[Peptide ID 23 RLYENRASL (HA-1)]", "% Pass/fail control": "266 % of pass/fail control"},
      {"binder": "KLSLGLPGL", "note": "[Peptide ID 118 KLSLGLPGL (CD19)]", "% Pass/fail control": "209 % of pass/fail control"},
      {"binder": "LLLSGAARV (Modified peptide)", "note": "[Peptide ID 138 LLLSGAARV (PR3, modified peptide)]", "% Pass/fail control": "210 % of pass/fail control"},
      {"binder": "VMNGTDPEL", "note": "[Peptide ID 120 VMNGTDPEL (CD2)]", "% Pass/fail control": "200 % of pass/fail control"},
      {"binder": "VLAEASASQ", "note": "[Peptide ID 125 VLAEASASQ (FLT3)]", "% Pass/fail control": "103 % of pass/fail control"},
      {"binder": "SLAQVVMKV", "note": "[Peptide ID 20 SLAQVVMKV (CD11a)]", "% Pass/fail control": "155 % of pass/fail control"},
      {"binder": "GLADVAVGV (Modified peptide)", "note": "[Peptide ID 146 GLADVAVGV (CD11a, modified peptide)]", "% Pass/fail control": "213 % of pass/fail control"},
      {"binder": "DMKDSIWWV", "note": "[Peptide ID 37 DMKDSIWWV (PU.1)]", "% Pass/fail control": "131 % of pass/fail control"},
      {"binder": "SLQSGILTL", "note": "[Peptide ID 11 SLQSGILTL (CD127)]", "% Pass/fail control": "181 % of pass/fail control"},
      {"binder": "ILYPINILV (Modified peptide)", "note": "[Peptide ID 149 ILYPINILV (CD11a, modified peptide)]", "% Pass/fail control": "321 % of pass/fail control"},
      {"binder": "YLMDLSYSM", "note": "[Peptide ID 21 YLMDLSYSM (CD18)]", "% Pass/fail control": "198 % of pass/fail control"},
      {"binder": "KIVEWDWKI", "note": "[Peptide ID 109 KIVEWDWKI (CD48)]", "% Pass/fail control": "236 % of pass/fail control"},
      {"binder": "ELDEELHYV (Modified peptide)", "note": "[Peptide ID 137 ELDEELHYV (CD33, modified peptide)]", "% Pass/fail control": "218 % of pass/fail control"},
      {"binder": "GLLSPQAQV", "note": "[Peptide ID 33 GLLSPQAQV (FLT3)]", "% Pass/fail control": "170 % of pass/fail control"},
      {"binder": "LLWAGALAV (Modified peptide)", "note": "[Peptide ID 148 LLWAGALAV (CD33, modified peptide)]", "% Pass/fail control": "272 % of pass/fail control"},
      {"binder": "SLTLGNVFV", "note": "[Peptide ID 122 SLTLGNVFV (CD53)]", "% Pass/fail control": "150 % of pass/fail control"},
      {"binder": "YLLDGILFI", "note": "[Peptide ID 1 YLLDGILFI (TCR_TV)]", "% Pass/fail control": "201 % of pass/fail control"},
      {"binder": "FLQDTFPQV (Modified peptide)", "note": "[Peptide ID 132 FLQDTFPQV (CD127, modified peptide)]", "% Pass/fail control": "216 % of pass/fail control"},
      {"binder": "VIVGSIIMV", "note": "[Peptide ID 110 VIVGSIIMV (CD53)]", "% Pass/fail control": "113 % of pass/fail control"},
      {"binder": "ALYDKTKRI", "note": "[Peptide ID 115 ALYDKTKRI (TdT_TV2)]", "% Pass/fail control": "260 % of pass/fail control"},
      {"binder": "LLAPRFLEV (Modified peptide)", "note": "[Peptide ID 142 LLAPRFLEV (CD50, modified peptide)]", "% Pass/fail control": "218 % of pass/fail control"},
      {"binder": "LLMSFFILL", "note": "[Peptide ID 27 LLMSFFILL (CD53)]", "% Pass/fail control": "189 % of pass/fail control"},
      {"binder": "VLIGILLLV", "note": "[Peptide ID 35 VLIGILLLV (CD18)]", "% Pass/fail control": "117 % of pass/fail control"},
      {"binder": "VLDIYGFEV", "note": "[Peptide ID 18 VLDIYGFEV (HA-2)]", "% Pass/fail control": "161 % of pass/fail control"},
      {"binder": "HMRPLAIWL", "note": "[Peptide ID 106 HMRPLAIWL (CD19)]", "% Pass/fail control": "56.2 % of pass/fail control"},
      {"binder": "ELLDVSWLV (Modified peptide)", "note": "[Peptide ID 150 ELLDVSWLV (TdT, modified peptide)]", "% Pass/fail control": "239 % of pass/fail control"},
      {"binder": "FVANAIIHL", "note": "[Peptide ID 111 FVANAIIHL (CD52)]", "% Pass/fail control": "276 % of pass/fail control"},
      {"binder": "LLQPFMFRV (Modified peptide)", "note": "[Peptide ID 135 LLQPFMFRV (MPO, modified peptide)]", "% Pass/fail control": "329 % of pass/fail control"},
      {"binder": "VLQELNVTV", "note": "[Peptide ID 34 VLQELNVTV (PR3)]", "% Pass/fail control": "170 % of pass/fail control"},
      {"binder": "LLQRPGLQL", "note": "[Peptide ID 126 LLQRPGLQL (CD64)]", "% Pass/fail control": "231 % of pass/fail control"},
      {"binder": "ALAGVLAIL", "note": "[Peptide ID 30 ALAGVLAIL (MPO)]", "% Pass/fail control": "210 % of pass/fail control"},
      {"binder": "ALARGLPGV (Modified peptide)", "note": "[Peptide ID 143 ALARGLPGV (CD7, modified peptide)]", "% Pass/fail control": "297 % of pass/fail control"},
      {"binder": "GLYQGLSTV (Modified peptide)", "note": "[Peptide ID 140 GLYQGLSTV (TCR_TV, modified peptide)]", "% Pass/fail control": "214 % of pass/fail control"},
      {"binder": "ALAVISFLL", "note": "[Peptide ID 114 ALAVISFLL (CD7)]", "% Pass/fail control": "221 % of pass/fail control"},
      {"binder": "SLWRRPFNV", "note": "[Peptide ID 22 SLWRRPFNV (MPO)]", "% Pass/fail control": "301 % of pass/fail control"},
      {"binder": "SMFHVTLKI", "note": "[Peptide ID 128 SMFHVTLKI (CLL-1)]", "% Pass/fail control": "307 % of pass/fail control"}
    ]}
  ]
}
